Values of other authors as cited in article PMC3214078.

Legend:
[1] = target: Histone H3 peptide N-terminal tail (Homo sapiens) (UniProt P68431); assay: ITC
[2] = target: Histone H3 peptide N-terminal tail (Homo sapiens) (UniProt P68431); assay: tryptophan fluorescence

Sequence of UHRF1 PHD (Q96T88 307-369): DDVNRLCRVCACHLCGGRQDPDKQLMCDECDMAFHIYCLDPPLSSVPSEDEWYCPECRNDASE

UHRF1 PHD (from UniProt Q96T88)
Kd [1]: 930 nM
Kd [2]: 3800 nM
